Measurements taken from patent US20190282704A1 (ZOETIS SERVICES, published 2019).
Substitutions are numbered along the chain they refer to. Bridges are numbered along the chain shown (N, C = ends). Where no end group is shown, it is not given here. mT2a = not defined here

T1: equine IL-31 (Equine_IL31) (equine)
T1 construct: Production of the protein used as Biacore surface is not described; also called horse IL-31
T1 chain: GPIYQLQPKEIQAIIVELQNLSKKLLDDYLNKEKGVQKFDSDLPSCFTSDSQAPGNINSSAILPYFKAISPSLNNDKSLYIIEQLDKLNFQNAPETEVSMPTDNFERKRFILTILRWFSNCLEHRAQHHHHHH

T2: human IL-31 (human, UniProt Q6EBC2 24-164)
T2 construct: Production of the protein used as Biacore surface is not described
T2 sequence: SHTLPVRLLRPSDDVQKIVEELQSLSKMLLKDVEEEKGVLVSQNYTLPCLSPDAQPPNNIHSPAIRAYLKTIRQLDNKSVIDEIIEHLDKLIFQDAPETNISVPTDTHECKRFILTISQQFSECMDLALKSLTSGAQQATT

T3: Peptide ZTS-564 (terminal cysteines constrained with the mT2b linker (CLIPS))
T3 peptide: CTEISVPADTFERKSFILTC

T4: canine IL-31 (Canine_IL31) (canine)
T4 chain: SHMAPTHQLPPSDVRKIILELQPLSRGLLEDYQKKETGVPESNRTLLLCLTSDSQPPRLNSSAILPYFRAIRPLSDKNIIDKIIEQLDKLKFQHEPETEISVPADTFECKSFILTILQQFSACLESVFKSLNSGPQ

B1: Peptide ZTS-562 (peptide)
peptide: CEISVPADTFERKSFC
modifications: constrained through the terminal cysteines; linker only shown in FIG. 13A
B2: ZIL94 (antibody, V domains shown)
VH: EVQLVDSGGDLVKPGGSLRLSCVASGFTFSTYFMSWVRQAPGRGLQWVALISSDGSGTYYADAVKGRFTISRDNAKNTLYLQMNSLRAEDTAMYYCAIFWRAFNDWGQGTLVTVSS
VL: QTVVIQEPSLSVSPGGTVTLTCGLNSGSVSTSNYPGWYQQTRGRTPRTIIYDTGSRPSGVPNRFSGSISGNKAALTITGAQPEDEADYYCSLYTDSDILVFGGGTHLTVLR
notes: Recombinant fully canine IgG (65_1 isotype); also called CAN-ZIL94
B3: ZIL154 (antibody, V domains shown)
VH: EVHLVESGGDLVKPWGSLRLSCVASGFTFSDRGMSWVRQSPGKGLQWVAYIRYDGSRTDYADAVEGRFTISRDNAKNTLYLQMNSLRAEDTAVYYCARWDGSSFDYWGQGTLVTVSS
VL: DIVVTQTPLSLSVSPGETASFSCKASQSLLHSDGNTYLDWFRQKPGQSPQRLIYKVSNRDPGVPDRFSGSGSGTDFTLRISGVEADDAGLYYCMQAIHFPLTFGAGTKVELKR
notes: Recombinant fully canine IgG (65_1 isotype); also called CAN-ZIL154
B4: ZIL159 (antibody, V domains shown)
VH: EVQLVESGGDLVKPAGSLRLSCVASGFTFSSYVMTWVRQAPGKGLQWVAGINSEGSRTAYADAVKGRFTISRDNAKNTLYLQIDSLRAEDTAIYYCATGDIVATGTSYWGQGTLVTVSS
VL: SNVLTQPPSVSVSLGQTATISCSGETLNRFYTQWFQQKAGQAPVLVIYKDTERPSGIPDRFSGSSSGNIHTLTISGARAEDEAAYYCKSAVSIDVGVFGGGTHLTVFR
notes: Recombinant fully canine IgG (65_1 isotype); also called CAN-ZIL159
B5: mouse anti IL-31 antibody 11E12 (antibody, V domains shown)
VH: QVQLQQSGAELVKPGASVKLSCKASGYTFKYYDINWVRQRPEQGLEWIGWIFPGDGGTKYNETFKGKATLTTDKSSSTAYMQLSRLTSEDSAVYFCARGGTSVIRDAMDYWGQGTSVTVSS
VL: DIVLTQSPASLAVSLGQRATISCRASESVDNYGISFMHWYQQKPGQPPKLLIYRASNLESGIPARFSGSGSRTDFTLTINPVETDDVATYYCQQSNKDPLTFGAGTKLELK
notes: Mouse monoclonal used for comparison; also called Mu-11E12; MU-11E12
B6: ZTS-927 (antibody)
heavy: QVLLVQSGAEVRTPGASVKIFCKASGYSFTSYTIHWLRQAPAQGLEWMGNINPTSGYTENNQRFKDRLTLTADTSTNTAYMELSSLRSADTAMYYCARWGFKYDGEWSFDVWGAGTTVTVSSASTTAPSVFPLAPSCGTTSGATVALACLVLGYFPEPVTVSWNSGALTSGVHTFPAVLQASGLYSLSSMVTVPSSRWLSDTFTCNVAHPPSNTKVDKTVRKTDHPPGPKPCDCPKCPPPEMLGGPSIFIFPPKPKDTLSISRTPEVTCLVVDLGPDDSDVQITWFVDNTQVYTAKTSPREEQFNSTYRVVSVLPILHQDWLKGKEFKCKVNSKSLPSPIERTISKAKGQPHEPQVYVLPPAQEELSRNKVSVTCLIKSFHPPDIAVEWEITGQPEPENNYRTTPPQLDSDGTYFVYSKLSVDRSHWQRGNTYTCSVSHEALHSHHTQKSLTQSPGK
light: EIQMTQSPSSLSASPGDRVTITCRASQGISIWLSWYQQKPGNIPKVLINKASNLHIGVPSRFSGSGSGTDFTLTISSLEPEDAATYYCLQSQTYPLTFGGGTKLEIKRSDAQPSVFLFQPSLDELHTGSASIVCILNDFYPKEVNVKWKVDGVVQNKGIQESTTEQNSKDSTYSLSSTLTMSSTEYQSHEKFSCEVTHKSLASTLVKSFQRSECQRE
B7: ZTS-361 (antibody)
heavy: B6 heavy with M242A, L243A, G245A
light: B6 light
B8: Peptide ZTS-563 (peptide)
peptide: CAKVSMPADNFERKNFILTC
modifications: linker 1-20 via mT2a; reading uncertain
B9: mouse anti IL-31 antibody 15H05 (antibody, V domains shown)
VH: QVQLQQSAAELARPGASVKMSCKTSGYTFTSYTIHWIKQRPGQGLEWIGNINPTSGYTENNQRFKDKTTLTVDRSSNTAYLQLHSLTSEDSAVYFCARWGFKYDGEWSFDVWGAGTTVTVSS
VL: DIQMNQSPSSLSASLGDTITVTCRASQGISIWLSWYQQKPGNIPKVLINKASNLHIGVPPRFSGSGSGTHFTLTITSLQPEDIATYYCLQSQTYPLTFGGGTKLEIN
notes: Mouse hybridoma monoclonal; also called Mu-15H05; MU-15H05
B10: ZIL69 (antibody, V domains shown)
VH: EVQLVESGGDLVKPAGSLRLSCVASGFTFSSYAMKWVRQAPGKGLQWVATINNDGTRTGYADAVRGRFTISKDNAKNTLYLQMDSLRADDTAVYYCTKGNAESGCTGDHCPPYWGQGTLVTVSS
VL: SSVLTQPPSVSVSLGQTATISCSGESLNKYYAQWFQQKAGQAPVLVIYKDTERPSGIPDRFSGSSAGNTHTLTISGARAEDEADYYCESAVSSETNVFGSGTQLTVLR
notes: Recombinant fully canine IgG (65_1 isotype); also called CAN-ZIL69
B11: ZIL171 (antibody, V domains shown)
VH: EVQLVESGGDLVKPAGSLRLSCVASGFTFRTYVMNWVRQAPGKGLQWVASINGGGSSPTYADAVRGRFTVSRDNAQNSLFLQMNSLRAEDTAIYFCVVSMVGPFDYWGHGTLVTVSS
VL: B10 VL with E25K, N28S, K29Y, A66S, E94D, N96I, S100G, Q103H
notes: Recombinant fully canine IgG (65_1 isotype); also called CAN-ZIL171

Assays:
ZTS-361 = target: B7; assay: cell-based or functional assay
[1] = target: T1, equine IL-31 (Equine_IL31); assay: Biacore, IL-31 surface, single antibody concentration
human IL-31 = target: T2, human IL-31; assay: as above
Peptide ZTS-563 = target: B8; assay: Biacore, peptide ZTS-563 immobilised on the surface
Peptide ZTS-562 = target: B1; assay: Biacore, peptide ZTS-562 immobilised on the surface
Peptide ZTS-561 = target: T5, Peptide ZTS-561 (terminal cysteines constrained with the mT2a linker (CLIPS)); assay: Biacore, peptide ZTS-561 immobilised on the surface
T5 construct: Unconjugated constrained peptide; also called canine IL-31 15H05 mimotope ZTS-561

Peptide ZTS-564 = target: T3, Peptide ZTS-564; assay: Biacore, peptide ZTS-564 immobilised on the surface
[2] = target: T4, canine IL-31 (Canine_IL31); assay: cell-based or functional assay

Binder: B1
- IC50 of peptide blocking mAb ZTS-361 inhibition of feline IL-31 mediated STAT3 phosphorylation in FCWF-4 cells, unconjugated (ZTS-361): 1.05 µg/mL

Binder: B2
- binding result [1]: no binding

Binder: B3
- binding result (human IL-31): no binding
- binding result [1]: no binding

Binder: B4
- binding result [1]: no binding

Binder: B5
- binding result (human IL-31): no binding
- binding result [1]: no binding

Binder: B6
- Kd (Peptide ZTS-563): 1.48 nM
- Kd (Peptide ZTS-562): 2.78 nM
- Kd (Peptide ZTS-561): 1.02 nM
- Kd (Peptide ZTS-564): 4.13 nM
- IC50, inhibition of canine IL-31-induced STAT3 phosphorylation, canine DH82 cells [2]: 23.2 µg/mL
- IC50, inhibition of canine IL-31-induced STAT3 phosphorylation, feline FCWF4 cells [2]: 39.6 µg/mL

Binder: B7
- IC50, inhibition of canine IL-31-induced STAT3 phosphorylation, canine DH82 cells [2]: 23 µg/mL
- IC50, inhibition of canine IL-31-induced STAT3 phosphorylation, feline FCWF4 cells [2]: 38.8 µg/mL

Binder: B8
- IC50 of peptide blocking mAb ZTS-361 inhibition of feline IL-31 mediated STAT3 phosphorylation in FCWF-4 cells, unconjugated (ZTS-361): 1.74 µg/mL

Binder: B9
- binding result (human IL-31): no binding
- binding result [1]: binds

Binder: B10
- binding result [1]: no binding

Binder: B11
- binding result [1]: no binding
